Measured values as given in patent publication US20150030595A1.
Read-outs that look alike come from different tables or passages of the source.

T1: ACVR2B-Fc fusion protein (human) (UniProt Q13705)
T1 sequence: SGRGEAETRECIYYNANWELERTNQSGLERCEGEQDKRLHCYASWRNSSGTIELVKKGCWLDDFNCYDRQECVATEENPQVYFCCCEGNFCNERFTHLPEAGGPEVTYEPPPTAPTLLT

B1: DLK1 A05 (monoclonal scFv-phage) (scFv, V domains shown)
VH: QMQLVESGGGLVQPGRSLRLSCAASGFTFDEHAMHWVRQAPGKGLEWVSGINWNSGKTGYADSVKGRFTISRDNGKNSLYLQMNSLRAEDTAVYYCAKSGGYGGNTNWYFDLWGRGTLVTVSS
VL: QFVLTQPPSVSGAPGQNVTISCIGTSSNIGVGYDVHWYQQVPGTAPKLLVYGNNNRPSGVPDRFSGSKSGTSASLAITGLQAEDEADYYCQSYDSRLGVVFGGGTKLTVL
B2: human antibody F08 (full-length IgG) (antibody, V domains shown)
VH: VQLVESGGGLVQPGGSLRLSCAASGFTFSDHYMDWVRQAPGKGLEWVGRTRNKANSYTTEYAASVKGRFTISRDDSKNSLYLQMNSLRAEDTAVYYCTKGAWLDYWGQGTLVTVSS
VL: IQMTQSPSAMSASVGDRVTITCRASQGISNYLAWFQQKPGKVPKRLIYGASSLQGGVPSRFSGSGSGTEFTLTITSLQPEDFATYFCLQHKSYPLTFGPGTKVEIK
modifications: constant regions not given
B3: DLK1 H06 (monoclonal scFv-phage) (scFv, V domains shown)
VH: QVQLVQSGGGLIQPGGSLRLSCAASGFTFSLYGMSWVRQAPGKGLEWVSSIPGSGTRTHYADSVKGRFTISRDNSKNTLFLQMNSLRAEDTAVYYCAKSTAYLFDYWGPGTLVTVSS
VL: DIQMTQSPATLSLSPGERATLSCRASQSIRHYLAWYQQKPGQAPRLLIHGASSRATGIPDRFSGSGSGTDFTLTISRLEPEDFAVYYCQHYGSPLHSFGPGTKVEIK
B4: ACVR2B A07 (monoclonal scFv-phage) (scFv, V domains shown)
VH: QLVESGGGLVRPGRSLTLSCTASGFTFNDYAMHWVRQAPGKGLEWVSGISWNTNSKAYADSVKGRFIISRDNAKNSLYLEMNSLRAEDTAVYYCVRDGGRFYYGLDVWGQGTSVTVSS
VL: DIVMTQTPVSSPVTLGQPASISCRSSQSLIHSDGNTYLSWIQQRPGQPPRLLIYKISNRFSGVPDRFSGSGAGTDFTLKISRVEAEDVGVYYCAETSQVPHTFGQGTKVEIK
modifications: scFv linker not given
B5: DLK1 H12 (monoclonal scFv-phage) (scFv, V domains shown)
VH: QVQLVQSGGGLVKPGGSLRLSCAASEFTFSDYYMSWVRQAPGKGLEWLSYISGSGITTYYADSVKGRFTISRDNGKKSLYLEMNSLRAEDTAVYYCARLQGHCSGGACSNWFDAWGQGTLITVSS
VL: DIQMTQSPSSLSASVGDRLTITCRASQSILTYLNWYQQKPGKAPKLLIYAASSLQRGVPSRFSGSGSGTDFTLTISGLQPEDFATYYCQQGYGTPYTFGQGTKVDIK
B6: DLK1 A10 (monoclonal scFv-phage) (scFv, V domains shown)
VH: QVQLVESGGGLVQPGRSLRLSCAASGFTFDDYAMHWVRQAPGKGLEWVSGISWNSGSIGYADSVKGRFTISRDNAKNSLYLQMNSLRAEDTAVYYCARGPGLATGKGYADYWGQGTLVTVSS
VL: DIQMTQSPSSVSASVGDRVTITCRASQRISSWLAWYQQKPGRAPKLLIHSASTLHNGVPSRFSGSASGTDFTLTISSLQPEDYAIYYCQQGHSFPYTFGQGTKLEIK
B7: DLK1 A04 (monoclonal scFv-phage) (scFv, V domains shown)
VH: QVQLVESGAEVKKPGASVKVSCKASGYTFKDYAIHWVRQAPGQRLEWMGWINPGSGNTKYSHNFEGRVILTRDASANTAYLELPSLRSEDTAVYYCARSVSAYGSNYFDPWGQGTLITVSS
VL: DIQMTQSPSSLSASVGDRVTITCQASQDISNYLNWYQQKPGKAPKLLIYSTSNLQSGVPSRFSGSGSGTDFTLTISSLQPEDFATYYCQQLNSYPLTFGGGTKVDIK
B8: DLK1 B09 (monoclonal scFv-phage) (scFv, V domains shown)
VH: QMQLVESGGRLVRPGGSLRLSCAASGFPFTSYAMNWVRQTPGKGLEWVSTITATSGKTYYADSVKGRFTISRDNSRNTLFLQMNSLRAEDTAVYYCVRGESCSGGACSDFDYWGQGALVTVSS
VL: QLVLTQPASVSGSPGQSVTISCTGTSSDIGRYNRVSWYQHHPGKAPKLILNDVTTRPSGFSNRFSGSKSGNTASLTISGLQAEDEADYSCGSYAGSYTYVFGTGTKVTVL

Tests used:
Fc [1] = experiment: phage ELISA, Fc coated
[2] = molecular target: DLK1-Fc fusion protein (human); experiment: phage ELISA, DLK1 coated
Chain of DLK1-Fc fusion protein (human) (chain, as listed by the source limits assumed, form in doubt): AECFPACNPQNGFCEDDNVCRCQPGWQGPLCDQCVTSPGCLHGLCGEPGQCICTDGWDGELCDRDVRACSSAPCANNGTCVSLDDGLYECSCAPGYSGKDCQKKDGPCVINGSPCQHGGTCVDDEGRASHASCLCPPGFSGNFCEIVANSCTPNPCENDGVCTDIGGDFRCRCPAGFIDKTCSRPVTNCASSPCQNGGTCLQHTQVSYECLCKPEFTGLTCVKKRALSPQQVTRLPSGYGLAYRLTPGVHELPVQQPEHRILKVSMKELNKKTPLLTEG

[3] = molecular target: anti-myc antibody coated on the ELISA plate; experiment: phage ELISA, anti-myc coated
[4] = molecular target: DLK1-Fc fusion protein (human); experiment: phage ELISA; OD on DLK1 divided by OD on a-myc
[5] = molecular target: T1, ACVR2B-Fc fusion protein (human); experiment: SPR (ProteOn XPR36)
Fc [6] = experiment: phage ELISA, Fc coated; remark: listed apart in the source
[7] = molecular target: T1, ACVR2B-Fc fusion protein (human); experiment: phage ELISA, ACVR2B coated
[8] = molecular target: T1, ACVR2B-Fc fusion protein (human); experiment: phage ELISA, ACVR2B coated; remark: listed apart in the source
[9] = molecular target: anti-myc antibody coated on the ELISA plate; experiment: phage ELISA, anti-myc coated; remark: listed apart in the source
[10] = molecular target: T1, ACVR2B-Fc fusion protein (human); experiment: phage ELISA; OD on ACVR2B divided by OD on a-myc

| Binder | OD490 (Fc [1]) [OD] | OD490 [2] [OD] | OD490 [3] [OD] | Ratio [4] | Kd [5] [pM] | koff [5] [s⁻¹] | kon [5] [M⁻¹ s⁻¹] | OD490 (Fc [6]) [OD] | OD490 [7] [OD] | OD490 [8] [OD] | OD490 [9] [OD] | Ratio [10] |
| --- | --- | --- | --- | --- | --- | --- | --- | --- | --- | --- | --- | --- |
| B1 | 0.0704 | 2.99 | 0.784 | 3.81 |  |  |  |  |  |  |  |  |
| B2 |  |  |  |  | 4.05 | 1.32e-05 | 3.25e+06 |  |  |  |  |  |
| B3 | 0.0766 | 2.13 | 0.863 | 2.47 |  |  |  |  |  |  |  |  |
| B4 | 0.0443 |  | 0.213 |  |  |  |  | 0.044 | 2.65 | 2.66 | 0.213 | 12.5 |
| B5 | 0.0539 | 3.2 | 0.674 | 4.75 |  |  |  |  |  |  |  |  |
| B6 | 0.0828 | 2.83 | 1.28 | 2.21 |  |  |  |  |  |  |  |  |
| B7 | 0.0791 | 3.12 | 0.507 | 6.15 |  |  |  |  |  |  |  |  |
| B8 | 0.0786 | 2.33 | 0.0918 | 25.3 |  |  |  |  |  |  |  |  |
